Results from article PMC2679210, “Dpr Acts as a Molecular Switch, Inhibiting Wnt Signaling when Unphosphorylated, but Promoting Wnt Signaling when Phosphorylated by Casein Kinase Iδ/ε” (PLoS ONE, 2009).

Molecular target: T1, Myc-tagged XDpr1a phosphorylated by CKIδ (Xenopus, UniProt Q8QG92 1-824, phosphorylated by CKIδ; sites not told)
T1 construct: Xenopus Dapper1a (XDpr1a), as m1; also called phosphorylated XDpr1a; XDpr1a in the presence of CKIδ
T1 sequence (looked up): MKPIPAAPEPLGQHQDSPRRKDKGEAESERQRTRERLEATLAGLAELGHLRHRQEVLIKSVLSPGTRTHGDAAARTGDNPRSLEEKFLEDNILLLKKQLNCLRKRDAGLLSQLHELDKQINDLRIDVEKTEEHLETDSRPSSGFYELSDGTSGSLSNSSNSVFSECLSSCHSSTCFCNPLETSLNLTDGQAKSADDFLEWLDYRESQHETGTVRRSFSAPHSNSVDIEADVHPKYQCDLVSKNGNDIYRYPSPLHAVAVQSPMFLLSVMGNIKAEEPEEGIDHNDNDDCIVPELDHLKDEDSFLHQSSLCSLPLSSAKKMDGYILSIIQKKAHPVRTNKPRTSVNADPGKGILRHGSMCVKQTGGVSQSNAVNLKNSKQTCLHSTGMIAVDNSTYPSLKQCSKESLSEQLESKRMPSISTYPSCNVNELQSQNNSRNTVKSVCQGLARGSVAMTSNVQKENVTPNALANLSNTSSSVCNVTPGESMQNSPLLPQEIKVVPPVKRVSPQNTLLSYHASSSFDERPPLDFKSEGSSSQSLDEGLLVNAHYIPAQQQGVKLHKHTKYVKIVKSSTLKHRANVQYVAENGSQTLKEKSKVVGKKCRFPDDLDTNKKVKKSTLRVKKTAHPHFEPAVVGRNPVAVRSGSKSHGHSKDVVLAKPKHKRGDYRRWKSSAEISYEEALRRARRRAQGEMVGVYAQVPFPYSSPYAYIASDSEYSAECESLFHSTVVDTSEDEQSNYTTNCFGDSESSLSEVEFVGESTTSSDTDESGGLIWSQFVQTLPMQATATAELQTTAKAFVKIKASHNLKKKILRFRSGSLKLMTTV
Assay: co-IP; in vitro coimmunoprecipitation: [35S]methionine-labeled Myc:XDpr1a immunoprecipitated with anti-Myc antibodies and protein A agarose, 2 hours at room temperature, from a reaction containing HA-tagged XDsh in the absence or presence of CKIδ; washed three times with 50 mM Tris-HCl pH 7.4, 137 mM NaCl; SDS-PAGE, autoradiography, PhosphorImager quantitation (n = 4 trials)
Details: partners not purified

B1: HA-tagged XDsh phosphorylated by CKIδ (natural protein, Xenopus, UniProt P51142 1-736, looked up)
chain: MAETKVIYHLDEEETPYLVKVPVPATDIRLRDFKAALGRGHAKYFFKAMDQDFGVVKEEISDDNAKLPCFNDRVVSWLASSEGSQPDSAPPAPATEVRPEPPPPVPPPIPPPPAERTSGIGDSRPPSFHPNVSGSTEQLDQDNESVISMRRDRVRRRESSEQAGVGRGVNGRTERHLSGYESSSTLLTSEIETSICDSEEDDTMSRFSSSTEQSSASRLLKRHRRRRKQRPPRLERTSSFSSVTDSTMSLNIITVTLNMEKYNFLGISIVGQSNERGDGGIYIGSIMKGGAVAADGRIEPGDMLLQVNDINFENMSNDDAVRVLRDIVHKPGPIVLTVAKCWDPSPQGYFTLPRNEPIHPIDPAAWVSHSAALSGSFPVYPGSASMSSMTSSTSVTETELSHALPPVSLFSLSVHTDLASVVKVMASPESGLEVRDRMWLKITIPNAFLGSDVVDWLYHHVEGFQDRREARKFASNLLKAGFIRHTVNKITFSEQCYYIFGDLTGCENYMTNLSLNDNDGSSGASDQDTLAPLPLPGASPWPLLPTFSYQYQAPHPYSTQPPAYHELSSYSYGMGSAGSQHSEGSRSSGSNRSDGGRGMQKDDRSGVAGVGGGDSKSGSGSESEYSTRSSIRRVGGGEAGPPSERSTSSRLPPHHPPSVHSYAAPGVPLSYNPMMLMMMPPPPLPPPGVCPPNSSVPPGAPPLVRDLASVPPELTATRQSFHMAMGNPSEFFVDVM
modifications: phosphorylated by CKIδ; sites not told
notes: Xenopus disheveled (XDsh), as m2; also called phosphorylated XDsh; XDsh in the presence of CKIδ
In the case of B1, the “coimmunoprecipitation relative to the control without CKIδ” value is reported as ~0.5 relative to no CKIδ (1.0).
